Source: paper PMC5959800 (The international journal of biochemistry & cell biology, 2018)

Molecular target: T1, Histidine-tagged AIMP1 (immobilised in SPR) (UniProt Q12904 1-312)
T1 sequence (looked up): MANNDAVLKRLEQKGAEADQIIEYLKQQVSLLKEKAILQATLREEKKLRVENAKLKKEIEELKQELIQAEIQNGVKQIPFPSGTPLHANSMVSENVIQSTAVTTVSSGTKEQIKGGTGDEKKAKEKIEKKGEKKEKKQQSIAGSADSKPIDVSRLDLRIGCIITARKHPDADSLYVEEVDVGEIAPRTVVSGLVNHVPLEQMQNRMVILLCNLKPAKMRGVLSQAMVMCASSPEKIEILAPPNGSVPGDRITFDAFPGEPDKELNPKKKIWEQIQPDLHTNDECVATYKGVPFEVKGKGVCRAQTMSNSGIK
Experiment: SPR

B1: His-tagged AIMP3 (natural protein, UniProt O43324 1-174, looked up)
chain: MAAAAELSLLEKSLGLSKGNKYSAQGERQIPVLQTNNGPSLTGLTTIAAHLVKQANKEYLLGSTAEEKAIVQQWLEYRVTQVDGHSSKNDIHTLLKDLNSYLEDKVYLTGYNFTLADILLYYGLHRFIVDLTVQEKEKYLNVSRWFCHIQHYPGIRQHLSSVVFIKNRLYTNSH
  Kd: 25.3 nM
